From US10428140B2, “Anti-EphA4 antibody” (EISAI R&D MANAGEMENT CO., LTD., priority 2015, dated 2019)
Where a chain is given by its changes, count along the chain named.

T1: human EphB3 (Homo sapiens, UniProt P54753)
T1 construct: a protein of the extracellular region of each human Eph receptor fused with the SEAP protein and the His tag; made in house; host or cells: Expi293F cells
T1 sequence (P54753 34-559 limits assumed): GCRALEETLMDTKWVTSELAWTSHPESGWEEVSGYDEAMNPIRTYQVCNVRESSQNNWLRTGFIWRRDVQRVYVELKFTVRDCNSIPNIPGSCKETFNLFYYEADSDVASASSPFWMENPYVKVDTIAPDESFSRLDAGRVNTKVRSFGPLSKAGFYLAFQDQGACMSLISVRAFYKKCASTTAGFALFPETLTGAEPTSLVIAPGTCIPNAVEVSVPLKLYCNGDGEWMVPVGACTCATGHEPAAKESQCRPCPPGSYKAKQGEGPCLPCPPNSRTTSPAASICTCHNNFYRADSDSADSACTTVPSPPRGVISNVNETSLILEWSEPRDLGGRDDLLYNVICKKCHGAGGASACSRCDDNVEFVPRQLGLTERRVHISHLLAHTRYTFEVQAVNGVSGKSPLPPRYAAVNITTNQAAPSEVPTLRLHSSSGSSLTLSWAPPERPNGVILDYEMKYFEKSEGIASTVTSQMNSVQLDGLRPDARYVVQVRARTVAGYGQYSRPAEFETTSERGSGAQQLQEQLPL

T2: human EphB6 (Homo sapiens, UniProt O15197)
T2 construct: a protein of the extracellular region of each human Eph receptor fused with the SEAP protein and the His tag; made in house; host or cells: Expi293F cells
T2 sequence (O15197 32-594 limits assumed): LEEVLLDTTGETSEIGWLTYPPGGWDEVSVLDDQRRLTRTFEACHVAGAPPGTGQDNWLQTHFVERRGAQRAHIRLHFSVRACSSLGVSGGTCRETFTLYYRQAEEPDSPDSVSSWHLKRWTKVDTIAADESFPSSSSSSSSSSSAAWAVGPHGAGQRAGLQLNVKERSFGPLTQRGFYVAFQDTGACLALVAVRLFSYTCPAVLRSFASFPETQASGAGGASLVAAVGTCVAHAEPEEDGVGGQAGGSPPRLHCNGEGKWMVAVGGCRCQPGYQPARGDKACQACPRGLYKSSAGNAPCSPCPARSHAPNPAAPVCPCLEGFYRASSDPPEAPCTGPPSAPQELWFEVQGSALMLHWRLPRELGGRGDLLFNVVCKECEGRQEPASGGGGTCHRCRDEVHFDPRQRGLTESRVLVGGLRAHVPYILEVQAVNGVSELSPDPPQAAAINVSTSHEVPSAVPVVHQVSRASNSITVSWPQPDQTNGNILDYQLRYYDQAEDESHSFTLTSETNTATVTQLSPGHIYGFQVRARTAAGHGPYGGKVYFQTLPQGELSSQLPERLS

B1: 135 (antibody, V domains shown)
VH: QVQLVQSGSELKKPGASVKVSCKASGYTFTDYSMHWVRQAPGQGLEWMGWINTETGEPTYADDFKGRFVFSLDTSVSTAYLQISSLKAEDTAVYYCARIPLYYYGSRYWYFDVWGQGTTVTVSS
VL: EIVMTQSPATLSVSPGERATLSCRASENIYRNLAWYQQKPGQSPRLLIYAATNLADGIPARFSGSGSGTEYTLTISSLQSEDFAVYYCQHFWGTPWTFGQGTKVEIK
modifications: synthetic humanized antibody heavy chain variable region sequence; synthetic humanized antibody light chain variable region sequence
B2: 78 (antibody, V domains shown)
VH: B1 VH with E46K
VL: DIQMTQSPSSLSASVGDRVTITCRASENIYRNLAWYQQKPGKAPKLLVYAATNLADGVPSRFSGSGSGTDYTLTISSLQPEDFATYYCQHFWGTPWTFGQGTKVEIK
modifications: synthetic humanized antibody heavy chain variable region sequence; synthetic humanized antibody light chain variable region sequence
B3: 156 (antibody, V domains shown)
VH: B1 VH with V2I, E46K, D62Q, D63G, K65T
VL: B2 VL with K45Q, V48L
modifications: synthetic humanized antibody heavy chain variable region sequence; synthetic humanized antibody light chain variable region sequence
B4: 77 (antibody, V domains shown)
VH: B1 VH
VL: B2 VL
modifications: synthetic humanized antibody heavy chain variable region sequence; synthetic humanized antibody light chain variable region sequence
B5: 76 (antibody, V domains shown)
VH: B1 VH with E46K, D62Q, D63G, K65T
VL: B2 VL
modifications: synthetic humanized antibody heavy chain variable region sequence; synthetic humanized antibody light chain variable region sequence
B6: 75 (antibody)
VH: B1 VH with D62Q, D63G, K65T
VL: B2 VL
chain: ASTKGPSVFPLAPSSKSTSGGTAALGCLVKDYFPEPVTVSWNSGALTSGVHTFPAVLQSSGLYSLSSVVTVPSSSLGTQTYICNVNHKPSNTKVDKRVEPKSCDKTHTCPPCPAPPAAAPSVFLFPPKPKDTLMISRTPEVTCVVVDVSHEDPEVQFNWYVDGVEVHNAKTKPREEQFNSTFRVVSVLTVVHQDWLNGKEYKCKVSNKGLPAPIEKTISKTKGQPREPQVYTLPPSREEMTKNQVSLTCLVKGFYPSDIAVEWESNGQPENNYKTTPPMLDSDGSFFLYSKLTVDKSRWQQGNVFSCSVMHEALHNHYTQKSLSLSPG
modifications: synthetic humanized antibody heavy chain variable region sequence; synthetic humanized antibody light chain variable region sequence; synthetic antibody constant region sequence
B7: 136 (antibody, V domains shown)
VH: B1 VH with E46K
VL: B1 VL
modifications: synthetic humanized antibody heavy chain variable region sequence; synthetic humanized antibody light chain variable region sequence
B8: 67 (antibody, V domains shown)
VH: B1 VH with V2I, E46K, D62Q, D63G, K65T
VL: B2 VL
modifications: synthetic humanized antibody heavy chain variable region sequence; synthetic humanized antibody light chain variable region sequence

Tests used:
human EphB3 = biological target: T1, human EphB3; assay: Selectivity ELISA of humanized antibodies for human Eph receptor; assay type: binding; conditions: coated protein 1 nM
How it was run: (§1)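 Read-out is A450 after TMB development stopped with 1N H2SO4. Plates bore anti-His-captured human Eph extracellular region-SEAP-His proteins at 1 nM final, made in Expi293F cells. Humanized antibody binding ran 1 h at room temperature before HRP-labeled anti-IgG detection.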

human EphB6 = biological target: T2, human EphB6; assay: as above; assay type: binding; conditions: coated protein 1 nM
How it was run: as §1

hEphB3-SEAP-: absorbance at 450 nm, percentage with respect to hEphA4-SEAP-His as 100% (human EphB3) [%] | hEphB6-SEAP-: absorbance at 450 nm, percentage with respect to hEphA4-SEAP-His as 100% (human EphB6) [%] | Molecule
5.0 | 5.3 | B1
5.2 | 5.2 | B2
5.6 | 5.7 | B3
4.6 | 4.5 | B4
5.0 | 5.2 | B5
4.7 | 4.7 | B6
5.5 | 5.5 | B7
4.9 | 4.7 | B8
